Residue numbers refer to the chain shown, from its start.
T1: human MerTK extracellular domain (ECD), recombinant (human, UniProt Q12866 21-505)
T1 construct: also called huMerTK; not shown: polyHis tag or TEVS/Thrombin/murine IgG2a Fc tag
T1 sequence: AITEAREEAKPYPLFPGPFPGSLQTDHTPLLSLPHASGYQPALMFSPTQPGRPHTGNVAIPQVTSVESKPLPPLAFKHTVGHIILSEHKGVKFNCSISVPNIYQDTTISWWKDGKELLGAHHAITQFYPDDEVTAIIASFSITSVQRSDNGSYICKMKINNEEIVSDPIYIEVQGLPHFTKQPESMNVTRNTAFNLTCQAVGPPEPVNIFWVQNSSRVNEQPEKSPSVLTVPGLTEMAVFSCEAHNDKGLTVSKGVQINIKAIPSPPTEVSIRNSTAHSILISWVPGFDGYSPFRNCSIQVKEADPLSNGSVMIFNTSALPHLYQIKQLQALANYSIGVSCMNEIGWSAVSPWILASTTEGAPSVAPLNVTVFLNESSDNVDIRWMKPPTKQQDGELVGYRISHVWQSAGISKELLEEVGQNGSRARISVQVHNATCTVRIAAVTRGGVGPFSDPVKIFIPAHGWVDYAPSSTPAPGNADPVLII

T2: cyno MerTK extracellular domain (ECD), recombinant (cynomolgus monkey, UniProt Q12866 21-505 (human entry))
T2 construct: also called cynomolgus MerTK; not shown: polyHis tag or TEVS/Thrombin/murine IgG2a Fc tag
T2 chain: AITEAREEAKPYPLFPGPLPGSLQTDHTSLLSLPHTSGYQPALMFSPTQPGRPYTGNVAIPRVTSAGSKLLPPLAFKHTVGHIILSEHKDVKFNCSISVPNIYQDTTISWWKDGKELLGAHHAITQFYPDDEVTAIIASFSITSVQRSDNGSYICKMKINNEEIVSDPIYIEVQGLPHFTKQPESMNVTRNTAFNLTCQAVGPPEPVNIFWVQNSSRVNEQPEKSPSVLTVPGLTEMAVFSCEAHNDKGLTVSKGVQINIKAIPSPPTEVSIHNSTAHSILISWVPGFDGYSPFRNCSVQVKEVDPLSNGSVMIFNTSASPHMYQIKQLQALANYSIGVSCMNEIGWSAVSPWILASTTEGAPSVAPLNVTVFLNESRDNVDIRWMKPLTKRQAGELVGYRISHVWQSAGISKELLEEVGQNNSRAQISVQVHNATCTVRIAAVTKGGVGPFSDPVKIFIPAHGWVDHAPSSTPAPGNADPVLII

T3: murine MerTK extracellular domain (ECD), recombinant (mouse, UniProt Q60805 19-497)
T3 construct: also called moMerTK; mouse MerTK; not shown: polyHis tag or TEVS/Thrombin/murine IgG2a Fc tag
T3 sequence: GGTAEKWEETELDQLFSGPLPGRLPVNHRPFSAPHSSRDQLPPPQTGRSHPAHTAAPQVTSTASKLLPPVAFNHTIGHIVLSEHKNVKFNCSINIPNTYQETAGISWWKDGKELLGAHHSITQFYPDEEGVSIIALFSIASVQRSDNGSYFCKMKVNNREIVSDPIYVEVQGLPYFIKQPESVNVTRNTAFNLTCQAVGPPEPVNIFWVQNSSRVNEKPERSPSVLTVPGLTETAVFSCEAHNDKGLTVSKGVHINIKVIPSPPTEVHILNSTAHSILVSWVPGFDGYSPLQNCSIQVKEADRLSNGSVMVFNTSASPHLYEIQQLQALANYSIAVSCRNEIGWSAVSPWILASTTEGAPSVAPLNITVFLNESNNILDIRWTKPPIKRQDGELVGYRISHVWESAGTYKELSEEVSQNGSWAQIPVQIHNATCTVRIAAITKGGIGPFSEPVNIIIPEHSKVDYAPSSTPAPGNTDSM

B1: MTK-15.11 (antibody, human IgG1, V domains shown)
VH: QVQLVQSGSELKKPGASVKVSCKASGYTFANYGVHWVRQAPGQGLEWMGWINTYEGEPTYAQGFTGRFVFSLDTSVSTAYLQISSLKAEDTAVYYCARGNRYAYQDYWGQGTLVTVSS
VL: EIVLTQSPATLSLSPGERATLSCRASSSVSYMHWYQQKPGQAPRPLIYATSNLASGIPARFSGSGSGTSYTLTISSLEPEDFAVYYCQQWSSNPRTFGGGTKVEIK
B2: MTK-15.13 (antibody, human IgG1, V domains shown)
VH: B1 VH with A30T, E55T, Q105E
VL: B1 VL with S30Q
B3: MTK-15.10 (antibody, human IgG1, V domains shown)
VH: B1 VH with E55Q, A97T, N100A, Q105M
VL: B1 VL with S30G
B4: MTK-15.9 (antibody, human IgG1, V domains shown)
VH: B1 VH with A30T, E55T, N100Y, Q105M
VL: B1 VL with V29T
B5: MTK-15.3 (antibody, human IgG1, V domains shown)
VH: B1 VH with A30T, E55T, Q105M
VL: B1 VL with S28H
B6: MTK-15.12 (antibody, human IgG1, V domains shown)
VH: B1 VH with E55Q, N100V, Q105M
VL: B1 VL with S30G, L77P
B7: MTK-15.8 (antibody, human IgG1, V domains shown)
VH: B1 VH with A30T, E55T, N100V, Q105M
VL: B1 VL with S30G, L77P
B8: MTK-15.7 (antibody, human IgG1, V domains shown)
VH: B1 VH with A30T, E55T, A97V, Q105M
VL: B1 VL with S28G
B9: MTK-15.2 (antibody, human IgG1, V domains shown)
VH: B1 VH with A30T, I51G, E55T, Q105M
VL: B1 VL
B10: MTK-15.5 (antibody, human IgG1, V domains shown)
VH: B1 VH with A30T, E55T, A97T, N100T, Q105M
VL: B1 VL with S30G
B11: MTK-15.1 (antibody, human IgG1, V domains shown)
VH: B1 VH with A30T, E55T
VL: B1 VL
B12: MTK-15.6 (antibody, human IgG1, V domains shown)
VH: B1 VH with A30T, E55T, T59Y, Q105M
VL: B1 VL with S30G
B13: MTK-29.8 (antibody, human IgG1, V domains shown)
VH: QVQLVQSGSELKKPGASVKVSCKASGYIFTTYGLSWVRQAPGQGLEWMGWINTYSGVPTYTDDFKGRFVFSLDTNVSTAYLQISSLKAEDTAVYYCARYTNYGVFDYWGQGTLVTVSS
VL: DIQLTQSPSFLSASVGDRVTITCRASSSVGYMHWYQQKPGKAPKLLIYATSNLAQGVPSRFSGSGSGTEFTLTISSLQPEDFATYYCQQWGSLPFTFGQGTKLEIK
B14: MTK-29.5 (antibody, human IgG1, V domains shown)
VH: B13 VH with T31S, N75S, S85P
VL: B13 VL
B15: MTK-29.9 (antibody, human IgG1, V domains shown)
VH: B13 VH with T31S, N75S
VL: B13 VL with E69G
B16: MTK-29.14 (antibody, human IgG1, V domains shown)
VH: B13 VH with G26S, I28T, L34M, T59S, G66A, N75S
VL: B13 VL with S75F
B17: MTK-29.7 (antibody, human IgG1, V domains shown)
VH: B13 VH with G26S, I28T, L34M, T59S, G66A, N75S
VL: B13 VL
B18: MTK-29.13 (antibody, human IgG1, V domains shown)
VH: B13 VH with G26S, I28T, L34M, Y54A, N75S
VL: B13 VL with K38E
B19: MTK-29.12 (antibody, human IgG1, V domains shown)
VH: B13 VH with G26S, I28T, L34M, Y54M, N75S
VL: B13 VL with S9G
B20: MTK-16.1 (antibody, V domains shown)
VH: QVQLVQSGSELKKPGASVKVSCKASGYTFTNHGMNWVRQAPGQGLEWMGWINTYTGEPTYAQGFTGRFVFSLDTSVSTAYLQISSLKAEDTAVYYCARKGVTAARYFDYWGQGTLVTVSS
VL: DIQMTQSPSSLSASVGDRVTITCKASQNVRTAVAWYQQKPGKAPKRLIYLASNRHTGVPSRFSGSGSGTEFTLTISNLQPEDFATYYCLQHWNYPLTFGGGTKVEIK
B21: MTK-16.2 (antibody, V domains shown)
VH: B20 VH with Q62D, G63D, T65K
VL: B20 VL with K24R, V104L
B22: MTK-15.4 (antibody, human IgG1, V domains shown)
VH: B1 VH with A30T, E55T, Q105M
VL: B1 VL with S30G

Biological target: T1, human MerTK extracellular domain (ECD), …
Test: SPR, Carterra LSA, antibody immobilised
Protocol: (§1) Binding kinetics of humanized and affinity-matured anti-MerTK antibodies of the present disclosure to human, murine, and cynomolgus MerTK proteins were evaluated as follows. Briefly, anti-MerTK antibodies were prepared by diluting to 10 μg/ml in 10 mM Acetate, pH 4.25 (Carterra, Salt Lake City, Utah), at 300 μl/well. A HC200M sensor chip (Carterra) was activated using the single channel flow cell with a 7-minute injection of a 1:1:1 mixture of 100 mM MES pH 5.5, 100 mM sulfo-NHS, 400 mM EDC (all reconstituted in MES pH 5.5; 100 μl of each mixed in vial immediately before running assay). After switching to the multi-channel array flow cell, the antibodies were injected over the activated chip in a 96-spot array for 15 minutes. The remaining unconjugated active groups on the chip were then blocked by injecting 1M Ethanolamine pH 8.5 (Carterra) for 7 minutes using the single channel flow cell.
(§2) Estimates of affinity were generated by injecting each analyte over the entire antibody array using the single channel flow cell. MerTK analytes were diluted to 33.3, 100, and 300 nM in running buffer, and injected in serial from lowest to highest concentration without regeneration. Two buffer blanks were run between each series (one species per series). Data were processed and analyzed using NextGenKIT high-throughput kinetics analysis software (Carterra). In these experiments, the anti-MerTK antibodies were human IgG1 isotype containing the Fc variant LALAPS.
(§3) The equilibrium dissociation constants (KD) were then calculated from the fitted association and dissociation rate constants (k-on and k-off) for anti-MerTK antibodies of the present disclosure.

Binder | Kd
B1 | 12.5 nM
B2 | 2.3 nM
B3 | 3.3 nM
B4 | 10 nM
B5 | 21.5 nM
B6 | 17.5 nM
B7 | 4.9 nM
B8 | 0.1 nM
B9 | 21.5 nM
B10 | 0.1 nM
B11 | 8.3 nM
B12 | 1 nM
B13 | 23 nM
B14 | 4.4 nM
B15 | 5.7 nM
B16 | 7.6 nM
B17 | 3.6 nM
B18 | 13 nM
B19 | 23 nM
B20 | 86 nM
B21 | 80 nM

Biological target: T2, cyno MerTK extracellular domain (ECD), …
Test: SPR, Carterra LSA, antibody immobilised
Protocol: as §1, §2, §3

Binder | Kd
B1 | 12.5 nM
B2 | 2.8 nM
B3 | 3.3 nM
B4 | 11.5 nM
B5 | 23 nM
B6 | 18 nM
B7 | 5 nM
B8 | 0.3 nM
B9 | 21.5 nM
B10 | 0.8 nM
B11 | 8 nM
B12 | 1.5 nM
B13 | 22.5 nM
B14 | 4.4 nM
B15 | 5.8 nM
B16 | 7.3 nM
B17 | 3.2 nM
B18 | 11 nM
B19 | 21 nM
B20 | 170 nM
B21 | 160 nM

Biological target: T3, murine MerTK extracellular domain …
Test: SPR, Carterra LSA, antibody immobilised
Protocol: as §1, §2, §3

Binder | binding result | Kd
B22 | no binding (tested: 300 nM) | 
B1 |  | 140 nM
B2 |  | 130 nM
B3 |  | 2800 nM
B4 |  | 850 nM
B5 | no binding (tested: 300 nM) | 
B6 |  | 114 nM
B7 | no binding (tested: 300 nM) | 
B8 |  | 705 nM
B9 | no binding (tested: 300 nM) | 
B10 |  | 690 nM
B13 |  | 310 nM
B14 |  | 135 nM
B15 |  | 140 nM
B16 |  | 100 nM
B17 |  | 95 nM
B18 |  | 170 nM
B19 |  | 250 nM
B20 | no binding (tested: 300 nM) | 
B21 | no binding (tested: 300 nM) | 

Source: patent US20210261685A1 (Alector, published 2021)
